Test [1] concerns the target T1, recombinant HER3 (Cat. No. 348-RB, R&D Systems) (UniProt P21860 20-643).
T1 construct: Detected through a His tag; also called labeled recombinant HER3 protein
In words: HRG-HER3 binding ELISA: HRGb1 coated, antibody dilutions premixed with 5 ug/ml recombinant His-tagged HER3, bound HER3 detected with anti-His HRP; blocked ligand HRG. Background: An ELISA detects its analyte on a solid surface through an enzyme-linked reagent.

The target of test [2] is human HER3 on human cancer cell lines (human, UniProt P21860 20-1342). Put plainly: cell-based or functional assay.

Changes are numbered by the printed parent chain.

B1: Clone 16 antibody (CL16), parental IgG1 (antibody, V domains shown)
VH: EVQLLESGGGLVQPGGSLRLSCAASGFTFSYYYMQWVRQAPGKGLEWVSYIGSSGGVTNYADSVKGRFTISRDNSKNTLYLQMNSLRAEDTAVYYCARVGLGDAFDIWGQGTMVTVSS
VL: QYELTQPPSASGTPGQRVTMSCSGSSSNIGLNYVSWYQQLPGTAPKLLISRNNQRPSGVPDRFSGSKSGTSASLAISGLRSEDEADYYCAAWDDSLSGEVFGGGTKLTVL
notes: also called Clone 16-PA; parental Clone 16 monoclonal antibody
Regarding B1, in test [1], the “IC50 (read off the curve)” value was approximately 0.7 µg/mL.

B2: 2C2 monoclonal antibody (IgG1) (antibody, V domains shown)
VH: B1 VH
VL: B1 VL with Y2S, E3V, M20I, S26L, L96P, S97P, V100A
Regarding B2, the “potency by IC50 in HRGβ1-induced pHER3 ELISA, MCF-7 cells, against MM and AMG” value in test [2] is approximately 5 fold.

The values above are taken from patent US20190040143A1 (AstraZeneca / MedImmune, published 2019).
